# Assay results: article PMC10720262 (2023)
# Biological target: PfCSP full length (Plasmodium falciparum (isolate NF54), UniProt P19597)
# Assay: ELISA AUC
# Sequence of PfCSP full length (P19597 20-375): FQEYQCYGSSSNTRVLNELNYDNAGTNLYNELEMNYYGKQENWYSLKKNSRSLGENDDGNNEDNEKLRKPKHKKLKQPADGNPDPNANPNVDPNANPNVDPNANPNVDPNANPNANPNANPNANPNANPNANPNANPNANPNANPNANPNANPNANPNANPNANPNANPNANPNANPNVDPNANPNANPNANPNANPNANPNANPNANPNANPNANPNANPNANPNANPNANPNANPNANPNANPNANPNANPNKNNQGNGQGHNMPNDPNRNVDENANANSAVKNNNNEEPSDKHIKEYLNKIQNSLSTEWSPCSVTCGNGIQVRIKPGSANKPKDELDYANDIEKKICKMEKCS
row,Binder,binding score
1,"CL-512871 (antibody, V domains shown, peptides N-terminally acetylated and C-terminally amidated) VH: QVLLVESGGGVVQPGRSLRLSCAASGFTFSNYGMHWVRQAPGKGLEWVALIRYDGINKFYADSVKGRFTISRDNSENTLYMQINSLRAEDTAMYYCAKAYNTSSDYYYGMDVWGQGTTVTVSS VL: DIQMTQSPSTLSASVGDRVTITCRASQSISTWLAWYQQKPGKAPKLLIYKASRLESGVPSRFSGSGSGTEFTLTISSLQPDDLATYYCQQFNSYWTFGQGTKVEIR",2.21
2,"CL-514174 (antibody, V domains shown, peptides N-terminally acetylated and C-terminally amidated) VH: QVQLVESGGGVVQPGRSLRLSCVASGFTFSGSGMHWVRQSPGKGLEWVAIIWYDGSNKFYADSVQGRFTISRDNSKNTLYLQMNSLRVEDTGVYYCARAYLSGNYGDKYGMDVWGQGTTVTVSS VL: DIQMTQSPSTLSASVGDRVTITCRASQSISSWLAWFQQKPGKAPKLLIYKASSLESGVPSRFSGSGSGTEFTLTINSLQPDDFATYFCQQYNYYWTFGQGTKVEIK",2.12
3,"CL-460406 (antibody, V domains shown, peptides N-terminally acetylated and C-terminally amidated) VH: QIQLVESGGGVVQPGRSLRLSCAASGFTFSNSGMHWIRQAPGKGLEWVTIIWYDGSNKYYADSVKGRFTISRDNSKNTLYLQMNSLRAEDTAIYYCARAYSSSSDDYYGMDVWGQGTTVTVSS VL: DIQMTQSPSTLSASVGDRVTITCRASQSISSWLAWYQQKPGKAPKLLIYKASSLESGVPSRFSGSGSGTDFTLTISSLQPDDFATYYCQQFYNYWTFGQGTKVEIT",2.3
4,"CL-508731 (antibody, V domains shown, peptides N-terminally acetylated and C-terminally amidated) VH: QVQLVESGGGVVQPGRSLRLSCVASGFTFSNNGMHWVRQAPGKGLEWVAIIWHDGSNKFYAESVRGRFTISRDNSNNTLYLQMNSLRAEDTAVYYCARDRMFGSGSWNYFDPWGQGTLVTVSS VL: EIVLTQSPATLSLSPGERATLSCRASQSISTYLAWYQQKPGQAPRLLIYDASNRATGIPARFSGSGSGTDFTLTISSLEPEDFAVYYCQQRSYWWTFGQGTKVEIK",2.31
5,"CL-509993 (antibody, V domains shown, peptides N-terminally acetylated and C-terminally amidated) VH: QVQLVESGGGVVQPGRSLRLSCVASGFTFSNNGMHWVRQAPGKGLEWVAIIWYDGSNKYYADSVKGRFTISRDNSNNTLYLQMNSLRAEDTAVYYCARDRMFGSGTWNYFDPWGQGTLVTVSS VL: EIVLTQSPATLSLSPGERATLSCRASQSVTTYLAWYQQKPGQAPRLLIYDASNRATGIPARFSGSGSGTDFTLTISSLEPEDFAVYYCQQRSNWWTFGQGTKVEIK",2.15
6,"CL-511905 (antibody, V domains shown, peptides N-terminally acetylated and C-terminally amidated) VH: QVQLVESGGGVVQPGRSLRLSCAASGFTFSGSGMHWVRQAPGRGLEWVAIIWYDGSHKYYVDSVQGRFIISRDNSKNTLYLEMNSLRVEDTAVYYCVRAYPSGSSNDKYGMDVWGQGTTVTVSS VL: not shown",2.61
7,"CL-510373 (antibody, V domains shown, peptides N-terminally acetylated and C-terminally amidated) VH: QVQLVESGGGVVQPGRSLKLSCAASGFTFSSYGMHWVRQAPGRGLEWVSIIWYDGSNKFYSDSVQGRFTISRDDSKNTLYLQMNSLRAEDTAMYYCAMVANYTISSGAFDIWGHGTMVTVSS VL: DIQMTQSPSTLSASVGDRVTITCRASQSISNWLAWYQQKSGKAPKLLIYKASSLESGVPSRFSGSGSGTEFTLTISSLQPDDFATYFCQQYKTYWTFGQGTKVEIK",2.37
8,"Ky315 (antibody, V domains shown, peptides N-terminally acetylated and C-terminally amidated) VH: QVQLVESGGGVVQPGRSLRLSCAASGFTLSNYGVHWVRQAPGTGLEWVALIWYDGSNKFYADSVKGRFTISRDNSMDIVYLQMNNLRAEDTALYYCVRPGIAAAGSNYYAMDVWGQGTAVTVSS VL: EIVMTQSPATLSMSPGERATLSCRASQSVGSDLAWFQQKPGQAPRLLIYGAFTRATGIPARFSGSGSGSEFTLTISSLQSEDFAVYYCQQYNRWWTFGQGTKVEMK",2.7
9,"CL-509930 (antibody, V domains shown, peptides N-terminally acetylated and C-terminally amidated) VH: QVQLVESGGGVVQPGRSLRLSCAASGFTFSSYGMHWVRQAPGKGLEWVAIIWHDGSNKYYADSVKGRFTISRDNSKNTLYLQMNSLRAEDTAVYYCARDYSSFYFDYWGQGTLVTVSS VL: not shown",1.99
10,"CL-513809 (antibody, V domains shown, peptides N-terminally acetylated and C-terminally amidated) VH: QVQLVESGGGVVQPGRSLRLSCAASGFIFSNYGMYWVRQTPDKGLEWVALIWYDGNNKFYSDSVKGRFTVSRDNSKNTLYLQMNSLRDEDTALYYCARAGYFYGSGSSLDKWGQGTLVTVSS VL: DIQMTQSPSTLSASVGDRVSITCRASQSISIWLAWYQQKPGKAPKLLIYKASSLESGVPSRFSGSGSGTEFTLTISSLQPDDFATYYCQQYNSYWTFGQGTKVEIK",2.34
11,"CL-449869 (antibody, V domains shown, peptides N-terminally acetylated and C-terminally amidated) VH: QVQLVESGGGAVQPGRSLRLSCAASGFTFSYNGMHWVRQAPGKGLEWVAIIWYDGSNKFYADSVKGRFTISRDNSKDTLYLEMNSLRAEDTAIYYCARAWNYDDKKYSMDVWGQGTTVTVSS VL: DIQMTQSPSTLSASVGDRVTITCRASQSISSWLAWYQQKPGKAPKLLIYKASSLESGVPSRFSGSGSGTEFTLTISSLQPDDFATYYCQQYNYFWTFGQGTKVEIR",2.2
12,"CL-510020 (antibody, V domains shown, peptides N-terminally acetylated and C-terminally amidated) VH: QVQLVESGGGVVQPGRSLRLSCAASGFTFSSFGMYWVRQAPGKGLEWVALIWYDGSNQYYADSVKGRFTISRDNSKNTLYLQMNSLRAEDTAVYYCARAGYFYGSGSPLDYWGQGTLVTVPS VL: DIQMTQSPSTLSASVGDGVTITCRASQSISSWLAWYQQKPGKAPKLLIYMASSLESGVPSRFSGSGSGTEFTLTISSLQPDDFATYYCQQYYNYWTFGQGTKVEIK",2.45
13,"Ky224 (antibody, V domains shown, peptides N-terminally acetylated and C-terminally amidated) VH: QVQLVESGGGVVQPGRSLRLSCAASGFTFSVYGMHWVRQAPGKGLEWVAVIWYDGSNKIYADSVKGRFTISRDNSKNTLYLQMDSLSAADTAVYYCAKIGSSSFDYWGQGTLVIVSS VL: DIVMTQTPLSSPVTLGQPASISCRSSQSLVHSNGITYLSWLQQRPGQPPRLLLYEISNRFSGVPDRFSGSGTGTDFTLKISRVEAEDVGVYYCMQTTQFPITFGQGTRLEIK",2.2
14,"CL-438096 (antibody, V domains shown, peptides N-terminally acetylated and C-terminally amidated) VH: QVVLVESGGGVVQPGRSLRLSCEASGFIFSSRGMHWVRQTPGKGLEWVAIIWYDGSNKFYADSVKGRFTISRDNSKNTLYLQMNSLRAEDTAVYYCARSYRTSLDKKYGMDVWGQGTTVTVSS VL: DIQMTQSPSTLSASVGDRVTITCRASQSISSWLAWYQQKPGKAPKLLIYKASSLESGVPSRFSGSGSGTEFTLTISSLHPDDFATYFCQQYNSYWTFGQGTKVEIK",2.6
15,"CL-510418 (antibody, V domains shown, peptides N-terminally acetylated and C-terminally amidated) VH: QVQLVESGGGVVQPGQSLRLSCEASGFTFSNYGMHWVRQAPVKGLEWVAIIWFDGSYKYYADSVKGRFTVSRDNSKNTLYLQMDSLRAEDTAVYYCARARKGQRSDYYGSETSYTFDNWGQGTLVTVSS VL: DIQMTQSPSTLSASVGDRVTITCRASQSINSWLAWYQQKPGKAPKFLIYKASILESGIPSRFSGSGSGTEFTLTISSLQPDDFATYYCQQYNSYWTFGQGTKVEIK",2.46
16,"CL-513083 (antibody, V domains shown, peptides N-terminally acetylated and C-terminally amidated) VH: QVQLVESGGGVVQPGRSLRLSCAASGFTFSNYGMHWVRQAPGRGLEWVAIIWYDGSNKYYEDSVKGRFTISRDNSKNTLYLQMNSLRAEDTAVYYCARAQWLDQRHYHYTMDVWGQGTTVTVSS VL: not shown",2.24
17,"CL-444469 (antibody, V domains shown, peptides N-terminally acetylated and C-terminally amidated) VH: QVQLVESGGGVVQPGRSLRVSCEVSGLTFSNYGMHWVRQAPGKRLEWVAIIWYDGSNKYYADSVKGRFTISRDNSKNTLYLQMNSLRAEDTAVYYCARSYGSGSRGDYYGMDVWGQGTTVTVSS VL: DIQMTQSPSTLSASVGDRVTITCRASQSISSWLAWFQQKPGKAPKLLIYKASSLESGVPSRFSGSGSGTEFTLTISSLQPDDFATYYCQQYYSYWTFGQGTKVEIK",2.4
18,"CL-532151 (antibody, V domains shown, peptides N-terminally acetylated and C-terminally amidated) VH: QVQLVESGGGVVQPGGSLRLSCAASGFTFSGSGMHWVRHAPGKGLEWVAIIWYDGSNKFYADSVKGRFTISRDNSRNTLYLQMNSLRAEDTAVYYCARAYVSGNYGDKYGMDVWGQGTTVTVSS VL: DIQMTQSPSTLSASVGDRVTITCRASQSISNWLAWFQQKPGKAPKLLIYKASSLESGVPSRFSGSGSGTEFTLTINSLQPDDFATYFCQQYNYYWTFGQGTKVEIK",2.53
19,"CL-437899 (antibody, V domains shown, peptides N-terminally acetylated and C-terminally amidated) VH: QEQLVESGGGVVQPGRSLRLSCEVSGFTFSNHGLHWVRQAPGKGLEWVAIIWYDGSNKFYAESVKGRFTISRDNSKNRMYLEMNSLRVEDSAVYYCVRAYSRSSSDYKYGMDVWGQGTTVTVSS VL: DIQMTQSPSTLSASVGDRVIITCRASQSISSWLAWYQQRPGKAPELLIYKASSLETGVPSRFSGSGSGTEFTLTISSLQPDDFATYFCQQYSSYWTFGQGTKVEIK",2.4
20,"CL-444691 (antibody, V domains shown, peptides N-terminally acetylated and C-terminally amidated) VH: QVQLVESGGGVVQPGRSLRLSCAASGFTFSNYGMHWVRQAPGKGLEWVAVIWYDGSNKFYADSVKGRFTISRDNSKNTLYLQMNSLRAEDTAVYYCARDGGYNKNSGSYGWFDPWGQGTLVTVSS VL: DIQMTQSPSTLSASVGDRVTITCRASQSVSTWLAWYQQKPGKAPKLLIYKASSLESGVPSRFSGSGSGTEFTLTISSLQPDDFATYYCQQYNSYFTFGQGTRLEIK",2.3
21,"Ky15.2 (antibody, V domains shown, peptides N-terminally acetylated and C-terminally amidated) VH: QVLLVESGGGVVQPGTSLRLSCVASGFSFSTYGMHWVRQSPGKGLEWVAIIWYDGGNKFYADSVQGRFTVSRDNSKNTLYLQMNSLRAEDTAVYYCAKAYRTSLDKKYGMDVWGQGTTVTVSS VL: DIQMTQSPSTLSASVGDRVTITCRASQSIASWLAWYQQKPGKAPKLLIYKASSLESGVPSRFSGSGSGTEFTLTISSLHPDDFATYFCQQFTSYWTFGQGTKVEIK",2.4
22,"CL-449007 (antibody, V domains shown, peptides N-terminally acetylated and C-terminally amidated) VH: QVQVVESGGGVVQPGRSLRLSCAASGFTFSNYGMHWVRQAPGKGLEWVAIIWYDGSHKFYANSVKGRFTISRDNSKNTLFLQMNSLRAEDTAVYYCARVGNGNSDWTDAFDIWGQGTMVTVSS VL: DIQMTQSPSTLSASVGDRVTITCRASQSINSWLAWYQQKPGKAPKLLIYKASSLESGVPSRFSGSGSGTEFTLTISSLQPDDFATYYCQQYNTYWTFGQGTKVEIK",2.4
23,"CL-513094 (antibody, V domains shown, peptides N-terminally acetylated and C-terminally amidated) VH: QVQLVESGGGVVQPGRSLRLSCAASGFTFSGSGMHWVRQAPGRGLEWVAIIWYDGSHKYYVDSVQGRFIISRDNSKNTLYLEMNNLRVEDTAVYYCVRAYPSGSSNDKYGMDVWGQGTTVTVSS VL: not shown",2.14
